Values quoted from earlier work, collected in PMC9659328.

Target: thrombin (Homo sapiens) (UniProt P00734)

**Q.** For thrombomodulin (from UniProt P07204), which Kd is on record?
**A.** 2 nM
